The target in the assay is CD20 on Raji cells (CD20+) or K562-CD20 cells (UniProt P11836). In words: cell-based or functional assay.

Among the data in patent US20220177524A1 are cytotoxicity on target cells (luciferase assay), MACS-sorted TCRαβ negative CD20 TAC-T cells and cytotoxicity on target cells (luciferase assay), MACS-sorted TCRαβ negative CD20 cTCR-T cells values, retold here.

Substance “anti-CD20 TAC (anti-CD20 scFv (Leu-16)-(GGGGS)3-huUCHT1.Y177T-GGGGS-CD4)” showed a cytotoxicity on target cells (luciferase assay), MACS-sorted TCRαβ negative CD20 TAC-T cells of 54.6%. Turning to “anti-CD20 chimeric TCR (anti-CD20 scFv (Leu-16)-(GGGGS)3-CD3epsilon)”, the cytotoxicity on target cells (luciferase assay), MACS-sorted TCRαβ negative CD20 cTCR-T cells is 49.2%.
